# From patent publication US20250129146A1, “COMBINED CANCER THERAPY WITH AN EPITHELIAL CELL ADHESION MOLECULE (EPCAM) INHIBITOR AND A WNT INHIBITOR” (ACADEMIA SINICA, priority 2021, published 2025)
# B1: EpAb2-6: anti-EpCAM (EpEX) neutralizing monoclonal antibody produced in mice by hybridoma; VH SEQ ID NO: 15, VL SEQ ID NO: 16 (antibody, V domains shown)
# VH: VKLQESGPELKKPGETVKISCKASGYTFTDYSMHWVKQAPGKGLKWMGWINTETGEPTYADDFKGRFAFSLETSASTAYLQINNLKNEDTATYFCARTAVYWGQGTTVTVSS
# VL: DIQMTQSPSSLSASLGERVSLTCRASQEISVSLSWLQQEPDGTIKRLIYATSTLDSGVPKRFSGSRSGSDYSLTISSLESEDFVDYYCLQYASYPWTFGGGTKLEIK
# B2: Wnt3A: recombinant Wnt3A (R & D systems) (protein, UniProt P56704 19-352, looked up)
# Protein Wnt-3a: SYPIWWSLAVGPQYSSLGSQPILCASIPGLVPKQLRFCRNYVEIMPSVAEGIKIGIQECQHQFRGRRWNCTTVHDSLAIFGPVLDKATRESAFVHAIASAGVAFAVTRSCAEGTAAICGCSSRHQGSPGKGWKWGGCSEDIEFGGMVSREFADARENRPDARSAMNRHNNEAGRQAIASHMHLKCKCHGLSGSCEVKTCWWSQPDFRAIGDFLKDKYDSASEMVVEKHRESRGWVETLRPRYTYFKVPTERDLVYYEASPNFCEPNPETGSFGTRDRTCNVSSHGIDGCDLLCCGRGHNARAERRREKCRCVFHWCCYVSCQECTRVYDVHTCK
# B3: EpEX: extracellular domain of EpCAM, produced in house by Expi293 Expression System (protein)
# chain: QEECVCENYKLAVNCFVNNNRQCQCTSVGAQNTVICSKLAAKCLVMKAEMNGSKLGRRAKPEGALQNNDGLYDPDCDESGLFKAKQCNGTSMCWCVNTAGVRRTDKDTEITCSERVRTYWIIIELKHKAREKPYDSKSLRTALQKEITTRYQLDPKFITSILYENNVITIDLVQNSSQKTQNDVDIADVAYYFEKDVKGESLFHSKKMDLTVNGEQLDLDPGQTLIYYVDEKAPEFSMQGLKAGVIAVIVVVVIAVVAGIVVLVISRKKRMAKYEKAEIKEMGEMHRELNA
# Tests used:
# [1] = test system: colon cancer cells (SW620, HCT116); test: Annexin-V/PI apoptosis assay; format: cell-based, human
# Experimental: Cells were seeded in 24-well plate ([…] cells per well) overnight and then treated with 20 μg/mL mEpAb2-6, hEpAb2-6 or MT201, or […] LGK974 (MedChemExpress) or the combination for 24 hrs. Cell pellets were collected, and an apoptosis assay was performed using an Annexin-V/PI apoptosis kit (BD Biosciences). Results were read by flow cytometry analysis percentage apoptotic cells was calculated.
# [2] = test system: EpCAM; test: Antibody binding to EpCAM wild-type, deletion and point mutants in HEK293T cells (immunofluorescence, flow cytometry, cellular ELISA); design: species or system human; conditions: mutations at EpCAM positions Y32 (EGF-I domain) or Y95 (EGF-II domain); HEK293T cells
# Experimental: FIGS. 18A to 18G. […] HEK293T cells were transfected with full length or EGF like-domain deletion mutant EpCAM-V5. Antibody binding was assessed by (FIG. 8A) Western blotting, (FIG. 8B) flow cytometry, and (FIG. 8C) immunofluorescence. (FIG. 8D) EpCAM mutants were constructed with amino acid substitutions in the EGF-I (Y32A) and EGF-II (L94A, Y95A, or D96A) domains. EpCAM wild-type and mutant proteins were expressed in HEK293T cells. Binding of MT201, EpAb2-6 and EpAb23-1 to EpCAM wild-type and mutants were evaluated by (FIG. 8E) immunofluorescence, (FIG. 8F) flow cytometry, and (FIG. 8G) cellular ELISA. All data are presented as mean±SEM. *, p<0.05; **, p<0.01.
# Here, we wanted to determine whether the antibody binds to EpCAM at both EGF-like domains of EpEX (FIG. 18A, FIG. 18B, FIG. 18C). To confirm that EpAb2-6 recognizes the LYD motif in EpCAM, we constructed cDNA sequences encoding the first (aa 27-59; EGF-I domain) and second (aa 66-135; EGF-II/TY domain) EGF-like repeats of EpCAM. PCR-based site-directed mutagenesis was then used to introduce mutations into each domain (FIG. 18D). The reactivity of EpAb2-6 antibody toward these EpCAM mutants was evaluated by immunofluorescence (FIG. 18E), flow cytometry (FIG. 18F), and cellular ELISA (FIG. 18G).
# [3] = target: T1, recombinant FZD7 (Homo sapiens, UniProt O75084); test: ELISA of EpEX binding to Wnt receptor-coated plates (FZD7)
# T1 construct: purchased Proteintech
# Experimental: (§1) For ELISA, wells (at least 6 wells per single protein) were coated with recombinant FZD6 (Proteintech), recombinant FZD7 (Proteintech), recombinant LRP5 (Proteintech), recombinant LRP6 (Proteintech) overnight at 4° C. The wells were then blocked with 1% BSA and treated with EpEX-his (Produced in house by Expi293 Expression System) for 2 hours. Otherwise, EpEX-His was incubated with EpAb2-6 overnight and the complex was used to treat the protein-coated plates for 2 hours. Further anti-His antibody (abeam) was used and TMB was performed to record optical density at 450 nm.
# [4] = target: T2, recombinant LRP5 (Homo sapiens, UniProt O75197); test: ELISA of EpEX binding to Wnt receptor-coated plates (LRP5)
# T2 construct: purchased Proteintech
# T2 sequence (O75197 32-1615): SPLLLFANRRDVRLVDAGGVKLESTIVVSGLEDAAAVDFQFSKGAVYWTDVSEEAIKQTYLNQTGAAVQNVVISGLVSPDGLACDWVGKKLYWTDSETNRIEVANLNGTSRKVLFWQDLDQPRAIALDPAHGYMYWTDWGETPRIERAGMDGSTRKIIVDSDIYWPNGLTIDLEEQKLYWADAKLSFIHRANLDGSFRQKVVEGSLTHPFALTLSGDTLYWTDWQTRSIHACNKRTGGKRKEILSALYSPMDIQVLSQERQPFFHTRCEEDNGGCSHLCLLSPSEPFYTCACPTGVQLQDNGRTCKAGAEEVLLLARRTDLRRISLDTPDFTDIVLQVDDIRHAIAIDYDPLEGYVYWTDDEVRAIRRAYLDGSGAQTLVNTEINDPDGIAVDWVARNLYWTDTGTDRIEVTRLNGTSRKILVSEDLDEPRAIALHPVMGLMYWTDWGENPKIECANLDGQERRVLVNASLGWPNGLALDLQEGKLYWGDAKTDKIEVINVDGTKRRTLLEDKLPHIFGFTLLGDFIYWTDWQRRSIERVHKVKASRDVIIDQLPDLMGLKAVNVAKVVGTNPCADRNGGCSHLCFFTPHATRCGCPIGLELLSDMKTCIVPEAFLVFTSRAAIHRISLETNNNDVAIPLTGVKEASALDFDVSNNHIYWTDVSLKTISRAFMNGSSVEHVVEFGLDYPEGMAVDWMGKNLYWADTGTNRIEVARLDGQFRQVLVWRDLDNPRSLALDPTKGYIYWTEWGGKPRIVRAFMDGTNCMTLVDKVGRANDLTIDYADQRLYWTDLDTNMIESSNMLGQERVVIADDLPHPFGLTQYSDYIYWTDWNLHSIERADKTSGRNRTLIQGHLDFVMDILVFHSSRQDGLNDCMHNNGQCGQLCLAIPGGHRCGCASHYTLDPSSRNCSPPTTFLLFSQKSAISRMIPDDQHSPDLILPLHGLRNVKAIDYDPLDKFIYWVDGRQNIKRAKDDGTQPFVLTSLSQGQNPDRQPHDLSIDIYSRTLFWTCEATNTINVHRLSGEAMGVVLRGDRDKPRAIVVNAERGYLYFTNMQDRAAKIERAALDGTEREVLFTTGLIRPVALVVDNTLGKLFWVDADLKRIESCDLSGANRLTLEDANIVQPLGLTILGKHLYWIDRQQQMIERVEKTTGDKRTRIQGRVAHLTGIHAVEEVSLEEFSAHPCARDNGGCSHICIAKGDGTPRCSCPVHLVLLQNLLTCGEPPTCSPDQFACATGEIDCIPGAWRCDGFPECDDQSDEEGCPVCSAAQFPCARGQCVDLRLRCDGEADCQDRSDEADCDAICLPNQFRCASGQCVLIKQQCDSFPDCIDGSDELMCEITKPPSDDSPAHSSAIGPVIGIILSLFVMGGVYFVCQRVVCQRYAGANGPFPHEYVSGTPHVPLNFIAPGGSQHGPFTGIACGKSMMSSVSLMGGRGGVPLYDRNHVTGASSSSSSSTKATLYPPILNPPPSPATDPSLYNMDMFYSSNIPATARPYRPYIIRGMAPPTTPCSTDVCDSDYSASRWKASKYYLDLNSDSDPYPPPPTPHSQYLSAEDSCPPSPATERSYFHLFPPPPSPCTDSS
# Experimental: as §1
# [5] = test system: Axin2; test: Wnt-target Axin2 expression (western blot, qPCR); format: cell-based, human; conditions: HT29 and HCT116 cells; EpEX, Wnt3A or combination; protein and mRNA
# Experimental: For western blotting, cells were extracted using radioimmunoprecipitation assay (RIPA) buffer [(0.01 M sodium phosphate, pH 7.2), 150 mM NaCl, 2 mM EDTA, 50 mM NaF, 1% Nonidet P-40, 1% sodium deoxycholate, and 0.1% SDS)] containing phosphatase inhibitor (Roche) and protease inhibitor (Roche) cocktail. Equal amounts of protein were separated by SDS-PAGE and then transferred to PVDF membranes. The membranes were blocked with 3% BSA in TBST (Blocking solution) and incubated with necessary primary antibodies in the blocking solution overnight at 4° C. Membranes were then incubated with HRP-conjugated secondary antibodies in the blocking solution for 1 h at room temperature, and protein expression were detected. […]
# Total RNA was extracted using TRI reagent and 5 μg of the total RNA was further reverse-transcribed using oligo (dT) primer with reverse transcriptase. Quantitative real time RT-PCR (qPCR) was performed on cDNA using the Light Cycler 480 SYBR Green-I Master kit and the LightCycler480 System. […]
# [6] = test system: γ-secretase; test: γ-Secretase activity (luciferase reporter); format: cell-based, human; conditions: HCT116 and HT29 cells; 250 ng/mL EpEX-His or 100 ng/mL Wnt3A for 8 h, or combination
# Experimental: The γ-secretase activity was measured using the protocol described by Liao et al (2004) (Liao et al., 2004). In brief, cells were transiently transfected with the control plasmid and tetracycline-inducible γ-secretase plasmid harboring luciferase (Liao et al., 2004) (the plasmids were generous gifts from Dr. Yung-Feng Liao, ICOB, Academia Sinica). Cells were treated with 250 ng/mL EpEX-His or 100 ng/mL Wnt3A (R&D Systems) for 8 h. Further, cells were lysed using passive lysis buffer and subjected to the luciferase assay.
# [7] = test system: TACE and presenilin-2 (PS2); test: Phosphorylation of ADAM17 (TACE) and Presenilin2 (western blot); format: cell-based, human; conditions: HCT116 cells; EpEX, Wnt3A for 8 h
# Experimental: For western blotting, cells were extracted using radioimmunoprecipitation assay (RIPA) buffer [(0.01 M sodium phosphate, pH 7.2), 150 mM NaCl, 2 mM EDTA, 50 mM NaF, 1% Nonidet P-40, 1% sodium deoxycholate, and 0.1% SDS)] containing phosphatase inhibitor (Roche) and protease inhibitor (Roche) cocktail. Equal amounts of protein were separated by SDS-PAGE and then transferred to PVDF membranes. The membranes were blocked with 3% BSA in TBST (Blocking solution) and incubated with necessary primary antibodies in the blocking solution overnight at 4° C. Membranes were then incubated with HRP-conjugated secondary antibodies in the blocking solution for 1 h at room temperature, and protein expression were detected. Antibodies used: anti-α-tubulin (Sigma), anti-EpCAM (abeam), anti-Active β-Catenin (Millipore), anti-total β-Catenin (abeam), anti-Frizzled 6 (CST), anti-Frizzled 7 (Santa Cruz Biotech), anti-LRP5 (abcam), anti-Phospho-LRP5 (abcam), anti-Phospho-LRP6 (CST), anti-LRP6 (CST) and anti-EpEX antibody EpAb3-5 (Produced in house), anti-ADAM17 (abcam), anti-phopho-ADAM17 (abcam), anti-Presenilin2 (abcam), anti-phospho-Presenilin2 (S327) (abcam), anti-phospho-Presenilin2 (S330) (abcam) and anti-Axin2 (CST).
# To study the kinase activity of GSK3 and CK1, 10^6 cells were seeded overnight and treated with GSK3 inhibitor BIO (Sigma) or CK1 inhibitor PF-670462 (selleckchem) for 8 h. […]
# [8] = EpEX-His incubated with antibody overnight
# [9] = EpEX-His alone, 2 hours, optical density at 450 nm
molecule,measurement,setting,value
"MT201: adecatumumab, a human anti-EpCAM antibody that was subjected to clinical trials [reference compound]",induction of apoptosis,"[1]; HCT116 cells, 20 μg/mL hEpAb2-6, mEpAb2-6 or MT201 for 24 hrs",does not have such activity
same,antibody binding to EpCAM mutants,[2],did not affect MT201 binding
B1,induction of apoptosis,"[1]; SW620 and HCT116 cells, 20 μg/mL EpAb2-6, LGK974 or the combination for 24 hrs",could induce apoptosis
same,EpEX binding to FZD7 after pre-incubation with antibody,[3]; [8],substantially decreased binding
same,antibody binding to EpCAM mutants,[2],marked reductions in EpAb2-6 binding
same,EpEX binding to LRP5 after pre-incubation with antibody,[4]; [8],substantially decreased binding
B2,Axin2 expression,[5],increased Axin2 expression
same,γ-secretase activity,[6],enhanced
same,phosphorylation of TACE and presenilin-2 (PS2),[7],increases the phosphorylation
B3,Axin2 expression,[5],increased Axin2 expression
same,γ-secretase activity,[6],enhanced
same,EpEX binding to FZD7,[3]; [9],bind with all receptor proteins
same,phosphorylation of TACE and presenilin-2 (PS2),[7],increases the phosphorylation
same,EpEX binding to LRP5,[4]; [9],bind with all receptor proteins
